# Where a chain is given by its changes, count along the chain named.
# B1: chimeric anti-PD-L1 antibody 73G11B3 (antibody, V domains shown)
# VH: EVQLVESGGGLVQPGGSLRLSCVVSGFTFSSYWMSWVRQTPGKGLEWVANIKQDGSEKYYVDSVKGRLTISRDNAKNSLYLQMNSLRAEDTAVYYCVRDRAVPGTGALDIWGQGTMVTVSS
# VL: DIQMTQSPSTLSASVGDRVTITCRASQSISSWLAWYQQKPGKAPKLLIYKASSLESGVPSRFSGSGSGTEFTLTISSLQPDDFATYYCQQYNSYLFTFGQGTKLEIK
# notes: Purified from hybridoma of Harbour H2L2 mice: human variable regions, rat constant regions
# B2: chimeric anti-PD-L1 antibody 192D9E7 (antibody, V domains shown)
# VH: EVQLVESGGGLVQPGGSLRLSCAASGFTFSSYWMSWVRQAPGKGLEWVADIKQDGSEKYYVDSVKGRFTISRDNAKNSLYLQMNSLRAEDTAVYYCTRDKPHWGGVMDAWGQGTSVTVSS
# VL: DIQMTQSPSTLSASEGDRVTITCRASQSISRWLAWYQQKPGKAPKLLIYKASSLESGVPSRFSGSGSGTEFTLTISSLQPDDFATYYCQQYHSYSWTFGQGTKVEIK
# notes: as for B1
# B3: chimeric anti-PD-L1 antibody 127D2F3 (antibody, V domains shown)
# VH: EVQLVESGGGLVQPGGSLRLSCVASGFTFSSYWMSWVRQAPGKGLEWVANIKQDGSEKYYVDSVKGRLTISRDNAKNSLYLQMKSLRAEDTAVYYCARDPIYSSYFDYWGQGILVTVSS
# VL: DIQMTQSPSSLSASVGDRVTITCRASQSISNYLNWYQQKPGKAPKLLIYAASSLQSGVPSRFSGSGSGTDFTLTISSLQPEDFAAYYCQQSYGIPFTFGPGTKVDIK
# notes: as for B1
# B4: chimeric anti-PD-L1 antibody 78A11F6 (antibody, V domains shown)
# VH: B1 VH with V23A, V24A, F27I, D62K, L68F, L108F, T118I
# VL: DIQMTQSPSTLSASVGDRVTITCRASQSISNWLAWYQQKPGKAPKLLIYKASSLESGVPSRFSGSGSGTEFTLTISSLQPDDFATYYCQQYDSSLFTFGQGTKLEIK
# notes: as for B1
# B5: chimeric anti-PD-L1 antibody 105C5D7 (antibody, V domains shown)
# VH: EVQLVESGGGLVQPGGSLRLSCAASGFTFSSYWMSWVRQAPGKGLEWVANIKQDGNEKYYVDSVKGRFTISRDNAKNSLYLQMNSLRAEDTAVYYCARNIKWGDAFDIWGQGTMVTVSS
# VL: B3 VL with N31S, A85I, Y87S, G93S, F96L, P100G, D105E
# notes: as for B1
# B6: chimeric anti-PD-L1 antibody 73D3G2 (antibody, V domains shown)
# VH: EVQLVESGGGLVQPGGSLRLSCAASGFTFNTYWMNWVRQAPGRGLEWVANIKQDGGEKYYVDSVKGRFTISRDNAKNSLYLQMNSLRAEDTAMYYCARDGRSWYPDAFDIWGQGTVVTVSS
# VL: DIQMTQSPSTLSASVGDRVTITCRASQSISTWLAWYQQKLGKAPKLLIYEVSILESGVPSRFSGSGSGTEFTLTISSLQPDDFATYYCQQYHSFSSFGGGTRVEIK
# notes: as for B1
# Target: T1, full length cyno PD-L1 on cells (cyno, UniProt G7PSE7 19-290)
# T1 construct: also called CHO-K1-cPD-L1
# T1 sequence (G7PSE7 entry or part of it limits assumed): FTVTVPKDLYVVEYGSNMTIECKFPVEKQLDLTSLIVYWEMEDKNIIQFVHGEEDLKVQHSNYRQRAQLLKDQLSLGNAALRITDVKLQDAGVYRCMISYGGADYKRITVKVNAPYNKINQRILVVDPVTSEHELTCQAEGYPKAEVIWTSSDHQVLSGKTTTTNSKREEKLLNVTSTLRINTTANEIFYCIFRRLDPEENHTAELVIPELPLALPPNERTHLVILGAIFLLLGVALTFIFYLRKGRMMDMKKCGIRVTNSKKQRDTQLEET
# Assay: FACS CHO-K1-cPD-L1, 0.001 nM mAb as printed (second such column)
# Description: (§1) Other CHO-K1 were stably transfected with a pIRES plasmid containing the nucleic acid sequence encoding full length cyno PD-L1 to generate CHO-K1 cells stably expressing cyno PD-L1 (herein referred to as CHO-K1-cPD-L1 cells). […] The culture media was aspirated, and the cells were washed twice with HBSS (Hanks Balanced Salt Solution, Invitrogen). The cells were treated with enzyme-free cell dissociation solution (Versene solution, Invitrogen) and collected. The cells were then washed twice with HBSS, cell counts were determined, and cells were resuspended with HBSS at 2×10⁶ cells/mL. Goat serum was added to the cell suspension to a final concentration of 1%, and the cells were blocked for 30 minutes on ice and then washed twice with HBSS. The cells were collected after centrifugation and resuspended in FACS buffer (HBSS+1% BSA, v/v) at 2×10⁶ cells/mL. 100 μL of the cell suspension were then added to each well of 96-well plate. 100 μL of purified anti-PD-L1 antibodies from Example 2 were added to each well of the 96-well plate and incubated for 2 hours on ice. […] The samples were washed three times with FACS buffer, and 100 μL fixation buffer (4% paraformaldehyde v/v) were added to each well and incubated for 10 minutes. The cells were then washed twice with FACS buffer and resuspended in 100 μL FACS buffer. The mean fluorescence intensity (MFI) was determined using FACS Calibur (BD), and the results are shown in FIGS. 7-8 and in Tables 10-11.
row,Mean fluorescence intensity,Binder
1,1.78,B1
2,1.75,B2
3,1.78,B3

# Target: T2, full length human PD-L1 on cells (human, UniProt Q9NZQ7 19-290)
# T2 construct: Also used as the target of the cell-based functional assays (transfected stimulator cells; PD-L1 of the cells in the mixed lymphocyte reaction); also called CHO-K1-hPD-L1; CHOK1-hPD-L1
# T2 sequence (Q9NZQ7 19-290 limits assumed): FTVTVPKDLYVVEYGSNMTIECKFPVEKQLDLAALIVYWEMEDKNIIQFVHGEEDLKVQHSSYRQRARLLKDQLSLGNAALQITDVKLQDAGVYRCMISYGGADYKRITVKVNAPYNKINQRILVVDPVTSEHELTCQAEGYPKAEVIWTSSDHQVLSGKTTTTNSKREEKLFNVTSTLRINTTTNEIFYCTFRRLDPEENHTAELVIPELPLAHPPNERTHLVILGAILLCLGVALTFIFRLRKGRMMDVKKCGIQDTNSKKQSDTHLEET
# Assay: FACS CHO-K1-hPD-L1, 0.001 nM mAb
# Description: as §1
row,Mean fluorescence intensity,Binder
1,1.88,B1
2,2.66,B2
3,2.1,B3

# Target: T2, full length human PD-L1 on cells
# Assay: FACS CHO-K1-hPD-L1, 0.41 nM mAb
# Description: as §1
row,Mean fluorescence intensity,Binder
1,105,B4
2,137,B5
3,87,B6

# Target: T2, full length human PD-L1 on cells
# Assay: cell-based or functional assay
"IFN-γ (pg/mL), MLR, 0.001 µg/mL mAb [pg/mL]","IFN-γ (pg/mL), MLR, 0.01 µg/mL mAb [pg/mL]","IFN-γ (pg/mL), MLR, 0.1 µg/mL mAb [pg/mL]","IFN-γ (pg/mL), MLR, 1 µg/mL mAb [pg/mL]","IFN-γ (pg/mL), MLR, 10 µg/mL mAb [pg/mL]",Binder
1520,3750,5740,6480,6950,B1
221,2000,3120,3300,4080,B2
599,1560,3010,2840,4840,B3

# Target: T1, full length cyno PD-L1 on cells
# Assay: FACS CHO-K1-cPD-L1, 1.23 nM mAb
# Description: as §1
row,Mean fluorescence intensity,Binder
1,124,B4
2,137,B5
3,116,B6

# Target: T3, human PD-L1^ECD-hFc protein (human, UniProt Q9NZQ7 19-239, biotinylated in the PD-1 binding ELISA (Table 3) and in the Octet assay (Table 12))
# T3 construct: The plain and the biotinylated protein are kept as one molecule; also called PD-L1-hFc; Immunogen A; not shown: human IgG Fc fragment (hFc)
# T3 sequence (Q9NZQ7 19-239): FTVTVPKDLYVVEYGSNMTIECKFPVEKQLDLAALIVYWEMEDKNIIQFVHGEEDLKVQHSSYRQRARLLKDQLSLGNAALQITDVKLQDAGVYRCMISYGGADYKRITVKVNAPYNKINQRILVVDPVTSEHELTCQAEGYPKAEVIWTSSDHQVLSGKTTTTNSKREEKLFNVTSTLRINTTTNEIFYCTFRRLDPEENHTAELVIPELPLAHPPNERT
# Assay: ELISA receptor-ligand blocking assay: PD-L1^ECD-hFc coated on the plate, antibody titrated, blocked ligand biotinylated PD-1^ECD, HRP-streptavidin, inhibition rate (%)
# Description: Purified PD-L1^ECD-hFc (Example 2) was diluted with PBS to a final concentration of 1.0 μg/mL, and 100 μL diluted PD-L1^ECD-hFc were added to each well of a 96-well plate that was then sealed with plastic film and incubated at 4° C. overnight. The plate was washed twice with wash buffer (PBS+0.01% (v/v) Tween 20) and incubated with blocking buffer (PBS+[…]) at room temperature for 2 hours. The blocking buffer was aspirated, and 50 μL purified anti-PD-L1 antibodies from Example 2 were added to each well of 96-well plate. […] The plate was washed three times with wash buffer (PBS+0.01% (v/v) Tween 20). 100 μL HRP-conjugated streptavidin (Sigma) were then added to each well and incubated at 37° C. for 2 hours. The plate was then washed three times with wash buffer, and 100 μL TMB substrate were added to each well. After 30 minutes of incubation at room temperature, the reaction was stopped by adding 100 μL stop solution (0.1N HCl).
row,IC50 (read off the curve) [nM],Binder
1,~0.4,B1
2,~0.3,B3
3,~0.5,B6

# Target: T2, full length human PD-L1 on cells
# Assay: cell-based or functional assay
# Remark: another data set of the same source
"IFN-γ (pg/mL), MLR, 0.001 µg/mL mAb [pg/mL]","IFN-γ (pg/mL), MLR, 0.01 µg/mL mAb [pg/mL]","IFN-γ (pg/mL), MLR, 0.1 µg/mL mAb [pg/mL]","IFN-γ (pg/mL), MLR, 1 µg/mL mAb [pg/mL]",Binder
3340,3390,7480,16400,B1
4730,8100,9060,12400,B2
6040,6280,8760,12600,B3

# Target: T4, cyno PD-L1^ECD-hFc protein (cyno, UniProt G7PSE7 19-239)
# T4 construct: also called Cyno Monkey PD-L1^ECD-hFc
# T4 sequence (G7PSE7 entry or part of it limits assumed): as the sequence (Q9NZQ7 19-239) above, with A33T, A34S, S62N, R68Q, Q82R, F173L, T185A, T192I, H215L counted along it
# Assay: ELISA, 0.123 nM mAb
# Description: (§2) 100 μL of the diluted recombinant proteins were added to each well of 96-well plate. The plates were sealed with plastic film and incubated at 4° C. overnight. The plates were washed twice with wash buffer (PBS+0.01% (v/v) Tween20), and incubated with blocking buffer (PBS+0.01% (v/v) Tween20+1% (w/w) BSA) at room temperature for 2 hours. The blocking buffer was aspirated away, and 100 μL of purified anti-PD-L1 antibodies were added to each well and incubated for 2 hours at 37° C. The plates were washed three times with wash buffer (PBS+0.01% (v/v) Tween20). HRP-conjugated secondary antibody (Sigma) was added to each well and incubated for 2 hours at 37° C. After the plates were washed three times with wash buffer, 100 μL TMB substrate were added to each well, and the plates were incubated for 30 minutes at room temperature. 100 μL stop solution (0.1N HCl) was added to each well to stop the reaction.
row,OD450 nm,Binder
1,0.91,B4
2,0.67,B5
3,0.72,B6

# Target: T3, human PD-L1^ECD-hFc protein
# Assay: ELISA, 100 nM mAb
# Description: as §2
row,OD450 nm,Binder
1,2.69,B1
2,2.7,B2
3,2.63,B3

# Target: T1, full length cyno PD-L1 on cells
# Assay: FACS CHO-K1-cPD-L1, 33.33 nM mAb
# Description: as §1
row,Mean fluorescence intensity,Binder
1,143,B4
2,133,B5
3,137,B6

# Target: T3, human PD-L1^ECD-hFc protein
# Assay: ELISA, 0.01 nM mAb
# Description: as §2
row,OD450 nm,Binder
1,0.28,B1
2,0.4,B2
3,0.38,B3

# Target: T2, full length human PD-L1 on cells
# Assay: FACS CHO-K1-hPD-L1, 0.01 nM mAb
row,Mean fluorescence intensity,Binder
1,3.96,B1
2,7.85,B2
3,5.31,B3

# Target: T1, full length cyno PD-L1 on cells
# Assay: FACS CHO-K1-cPD-L1, 10 nM mAb
# Description: as §1
row,Mean fluorescence intensity,Binder
1,99.2,B1
2,82.3,B2
3,105,B3

# From patent US20190010233A1 (JIANGSU HYAMAB PHARMACEUTICAL, published 2019)
